Results taken from patent publication EP4019546A1.
Read-outs that look alike come from different tables or passages of the source.

Columns and labels:
[1] = biological target: human IL-31-His (human) (UniProt Q6EBC2); test: SPR (Biacore T200), IL-31-His captured via anti-His antibody, scFv as analyte, 1:1 model
[2] = biological target: human IL-31 (human) (UniProt Q6EBC2); test: cell-based or functional assay
[3] = biological target: human IL-31-His (human) (UniProt Q6EBC2); test: SPR (Biacore T200), IL-31-His captured via anti-His antibody, scFv as analyte, 1:1 model; remark: listed apart in the source
[4] = biological target: human IL-31 (human) (UniProt Q6EBC2); test: cell-based or functional assay; remark: listed apart in the source
[5] = biological target: human IL-31 (human) (UniProt Q6EBC2); test: competitive ELISA, IL-31RA coated, biotinylated IL-31 preincubated with scFv; competitor IL-31RA

human IL-31 (human), sequence (Q6EBC2 24-164 limits assumed): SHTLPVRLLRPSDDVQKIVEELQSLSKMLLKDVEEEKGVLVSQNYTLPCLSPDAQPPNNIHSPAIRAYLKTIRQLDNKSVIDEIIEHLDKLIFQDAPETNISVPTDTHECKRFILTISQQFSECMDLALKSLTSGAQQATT
human IL-31-His (human), sequence (Q6EBC2 24-164 limits assumed): as above

- Kd [1]: 0.505 nM
- koff [1]: 0.000447 s⁻¹
- kon [1]: 884000 M⁻¹ s⁻¹
- IC50, neutralization of hIL-31-induced signaling in IL-31RA/OSMR dimerization assay [2]: 8.08 ng/mL
- rel. IC50 (IC50, BMS-981164/IC50, test sample), IL-31RA/OSMR dimerization assay [2]: 0.85
- Kd [3]: 1.13 nM
- koff [3]: 0.000653 s⁻¹
- kon [3]: 579000 M⁻¹ s⁻¹
- IC50, neutralization of hIL-31-induced signaling in IL-31RA/OSMR dimerization assay [4]: 11.1 ng/mL
- rel. IC50 (IC50, BMS-981164/IC50, test sample), IL-31RA/OSMR dimerization assay [4]: 1.16
- IC50 [5]: 4.58 ng/mL
- rel. IC50 (IC50, BMS-981164/IC50, test sample) [5]: 2.04
B1: PRO1643 (scFv, from another filing)
scFv: AFQLTQSPSSLSASVGDRVTITCQASQSIDSWLAWYQQKPGKPPKLLIYQASKLASGVPSRFSGSGSGTDYTLTISSLQPEDFATYYCQTYYGGGHIGWGFGTGTKVTVLGGGGGSGGGGSGGGGSGGGGSQSQLVESGGGLVQPGGSLRLSCAASGFSFSANYWICWVRQAPGKGLEWIVCIYIGSRADTYYAPWAKGRFTISKDNSKNTVYLQMNSLRAEDTAVYFCARFSSGIYDLDRFFLWGQGTLVTVSS
